Laboratory results reported in US20140193449A1.

Target: CD8+ splenocytes from LV-huCEA-vaccinated huCEA transgenic mice (T cell receptors of huCEA-specific CTLs)
Test: flow cytometry, tetramer and anti-CD8 double staining of pooled splenocytes

- percent of CD8+ splenocytes stained by the tetramer: 2.1%
Substance: PE-conjugated huCEA/H-2Db tetramer specific for EAQNTTYL (SEQ ID NO: 23) immunogenic peptide (iTag, Beckman Coulter) (from UniProt P01899 25-309) (peptide-MHC)
